In assay [1] the target is T1, IL-4R (recombinant protein) (human, UniProt P24394 26-232, biotinylated (Acro Biosystems ILR-H82E9) in the ELISA).
T1 construct: Bought recombinant IL-4R; also called IL-4 receptor; IL-4R molecule
T1 sequence (looked up): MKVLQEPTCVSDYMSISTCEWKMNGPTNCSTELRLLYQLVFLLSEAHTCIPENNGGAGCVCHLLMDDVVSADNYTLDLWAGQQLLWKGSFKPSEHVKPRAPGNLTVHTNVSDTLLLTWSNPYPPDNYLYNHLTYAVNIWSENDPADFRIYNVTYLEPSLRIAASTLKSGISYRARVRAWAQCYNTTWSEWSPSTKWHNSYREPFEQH
The assay is described as follows: SPR.

A further assay addresses T2, IL-4R on cells (human, UniProt P24394 26-825).
T2 sequence (looked up): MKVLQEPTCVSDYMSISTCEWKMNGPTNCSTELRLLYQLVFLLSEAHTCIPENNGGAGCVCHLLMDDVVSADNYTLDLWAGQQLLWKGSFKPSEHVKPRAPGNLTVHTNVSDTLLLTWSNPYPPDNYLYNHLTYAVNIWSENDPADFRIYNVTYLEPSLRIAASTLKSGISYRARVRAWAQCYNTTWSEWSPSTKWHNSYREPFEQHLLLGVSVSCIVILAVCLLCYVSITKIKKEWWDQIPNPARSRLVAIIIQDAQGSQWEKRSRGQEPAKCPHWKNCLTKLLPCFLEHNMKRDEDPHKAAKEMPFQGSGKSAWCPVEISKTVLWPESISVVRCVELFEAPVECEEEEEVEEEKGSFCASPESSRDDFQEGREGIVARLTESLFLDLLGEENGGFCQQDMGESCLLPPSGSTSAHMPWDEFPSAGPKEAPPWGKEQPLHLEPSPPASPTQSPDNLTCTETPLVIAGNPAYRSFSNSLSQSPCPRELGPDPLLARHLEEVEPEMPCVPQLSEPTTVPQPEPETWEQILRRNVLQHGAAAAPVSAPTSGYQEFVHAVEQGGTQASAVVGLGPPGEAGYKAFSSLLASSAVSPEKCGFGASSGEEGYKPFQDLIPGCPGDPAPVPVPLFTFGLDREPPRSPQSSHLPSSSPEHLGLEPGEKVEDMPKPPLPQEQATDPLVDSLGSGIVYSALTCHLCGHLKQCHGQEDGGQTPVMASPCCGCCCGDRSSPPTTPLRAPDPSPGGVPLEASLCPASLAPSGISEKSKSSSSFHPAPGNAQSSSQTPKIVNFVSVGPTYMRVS
Nature of the assay: cell-based or functional assay.

Assay [2] deals with T1, IL-4R (recombinant protein). Nature of the assay: ELISA, periplasmic extract captured by anti-c-Myc, 50 nM biotinylated IL-4R against MBP. On the technique in general: ELISA stands for enzyme-linked immunosorbent assay.

In general, Kd refers to a measure of binding affinity in units of concentration.

B1: H5 nanobody (VHH)
VHH: QVQLVESGGGSVQAGGSLRLSCAASGSISSITYLGWFRQAPGKEREGVAALSTSSGTTYYADSVKGRFTVSLDNAKNTVYLQMNSLKPEDTALYYCAAADKGREYTLARAKYWYWGQGTQVTVSA
notes: Synthetic nanobody (sybody, convex scaffold) expressed from pSBinit in E. coli and purified on TALON resin; It was detected with anti-Myc, so the tested protein probably carries Myc/His tags; also called WT H5; H5 wild-type nanobody
Take B1: the dissociation constant (Kd) in assay [1] was 1420 nM. In addition, in the assay with IL-4R on cells, the “IL-4 signal blocking in STAT6-luciferase reporter cells (667 pM IL-4, 24 hours)” value is ~2 fold concentration relative to dupilumab. Further, the “fold-change of OD values for IL-4R and MBP” value in assay [2] is over 1.7 fold.

B2: H5 A110Y (VHH)
VHH: QVQLVESGGGSVQAGGSLRLSCAASGSISSITYLGWFRQAPGKEREGVAALSTSSGTTYYADSVKGRFTVSLDNAKNTVYLQMNSLKPEDTALYYCAAADKGREYTLARYKYWYWGQGTQVTVSA
notes: also called H5 A110Y mutant
For B2, in assay [1], the Kd came out at 708 nM.

B3: H5 E104R (VHH)
VHH: QVQLVESGGGSVQAGGSLRLSCAASGSISSITYLGWFRQAPGKEREGVAALSTSSGTTYYADSVKGRFTVSLDNAKNTVYLQMNSLKPEDTALYYCAAADKGRRYTLARAKYWYWGQGTQVTVSA
notes: also called H5 E104R mutant
As for B3, the equilibrium dissociation constant (Kd) in assay [1] is 1.06 nM.

(Values after patent EP4717710A1 (UIF (University Industry Foundation), Yonsei University, dated 2026).)
